Data taken from article PMC9233197, “Neuropeptide signalling shapes feeding and reproductive behaviours in male Caenorhabditis elegans” (Life Science Alliance, 2022).
No end group written: not given here.

Biological target: T1, NPR-22 (Caenorhabditis elegans, UniProt Q59E83)
T1 construct: host or cells: CHO-K1 cells (CHO/mtAEQ/Gα16) transiently transfected with NPR-22 cDNA in pcDNA3.1 TOPO
T1 sequence (Q59E83 1-434): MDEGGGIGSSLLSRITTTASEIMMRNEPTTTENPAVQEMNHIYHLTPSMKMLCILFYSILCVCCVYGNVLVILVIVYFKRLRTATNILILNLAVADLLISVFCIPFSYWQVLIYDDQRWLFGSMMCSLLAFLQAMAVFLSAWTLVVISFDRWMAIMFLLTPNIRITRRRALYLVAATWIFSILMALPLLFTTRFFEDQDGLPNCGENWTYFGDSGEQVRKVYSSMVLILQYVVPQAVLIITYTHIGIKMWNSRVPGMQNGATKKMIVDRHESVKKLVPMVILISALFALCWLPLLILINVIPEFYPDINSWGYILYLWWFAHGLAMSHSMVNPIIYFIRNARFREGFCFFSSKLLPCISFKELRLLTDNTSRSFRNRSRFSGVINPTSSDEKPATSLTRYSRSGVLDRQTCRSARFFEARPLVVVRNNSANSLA
Assay: In vitro GPCR activation assay (aequorin bioluminescence, CHO/mtAEQ/Gα16 cells transfected with NPR-22)
Assay type: cell-based
Details: dose–response, n = 6–8 trials
Description: Figure 1. Neuropeptide lury-1 and its receptor npr-22 are expressed in different cells in the two sexes of C. elegans. […] In males, there is additional expression in cells in the tail (white arrows). Dashed outlines indicate worm body and position of pharyngeal bulbs in the head. Scale bar = 10 μm. (B) Identification of lury-1–expressing male tail neurons using NeuroPAL ([Tekieli et al, 2021]; [Yemini et al, 2021]). The lury-1 reporter line used here is JN2443 (Plury-1::Venus, unc-122p::mCherry). […] DX1–DX3 are annotated in the image. Nuclear fluorescence in other neurons is in pseudocolour as in [Yemini et al (2021)]. Scale bar = 10 μm. […] The corresponding EC50 values (M) for each peptide are as indicated. Line represents non-linear regression fit of a variable slope line using three parameters. n = 6–8 trials. […] Expression in male copulatory apparatus is also observed. Dashed outlines indicate worm body and position of pharyngeal bulbs in the head. Scale bar = 10 μm. […]
Cell-based activation assays were performed as described ([Beets et al, 2012]). […] Cells (25,000 cells/well) were exposed to synthetic peptides in BSA medium, and aequorin bioluminescence was recorded for 30 s on a MicroBeta LumiJet luminometer (PerkinElmer) in quadruplicate. […] EC50 values were calculated from dose–response curves, constructed using a nonlinear regression analysis, with sigmoidal dose–response equation (Prism 9.0).

activation of the receptor NPR-22 in vitro (in words)	Substance
activate the receptor NPR-22 in vitro	LURY-1-1: peptide encoded by the LURY-1 precursor (luqin RYamide) of C. elegans; synthetic peptide in the assay (PALLSRY; ends and bridges not checked; UniProt Q9XW71 29-35, looked up)
activate the receptor NPR-22 in vitro	LURY-1-2: peptide encoded by the LURY-1 precursor (luqin RYamide) of C. elegans; synthetic peptide in the assay (AVLPRY; ends and bridges not checked; UniProt Q9XW71 38-43, looked up)
